In article PMC13274938 one finds stoichiometry N (Fab per trimer) data, which are given here for 1 molecule.

In this assay the target is Q23-APEX-GT2 trimer (Q23-APEX-GT1-T132R-S158T) (HIV-1 (Q23.17)). In words: cryo-EM structure.

B1: CH70-Apex2.01 Fab (Fab, V domains shown)
VH: QVQLQESGPGLVKPSETLSLTCAVSGGSISDDYYWTWIRQPPGKGLEWIGYIYGDGGDTKYNPSLKNRVTISIDTSKNHFSLKVNSMTGADTAVYYCAREGRGQFWYDEDYGQFYVPGGLDSWGQGVVVTVSS
VL: DIQMTQTPLSLSVSPGEPASISCRSSQSLLHTDGYDYLDWYLQKPGQSPQLLIYGGSDRPSGVPDRFSGSGSGTDFTLKISRVEAEDVGVYYCMQHKALPRTFGQGTKVEIK
Consider B1, for which the stoichiometry N (Fab per trimer) amounted to 1.
